Experiments:
Assay in all cases: cell-based or functional assay
Hck(h) = Hck(h) (human, UniProt P08631 251-518, limits assumed)
HIPK1(h) = HIPK1(h) (human, UniProt Q86Z02 158-555, limits assumed)
HIPK2(h) = HIPK2(h) (human, UniProt Q9H2X6 165-564, limits assumed)
IRR(h) = IRR(h) (human, UniProt P14616 960-1297, limits assumed)
IRAK4(h) = target: T1, IRAK4(h) (human, UniProt Q9NWZ3 1-460, limits assumed)
T1 sequence (looked up): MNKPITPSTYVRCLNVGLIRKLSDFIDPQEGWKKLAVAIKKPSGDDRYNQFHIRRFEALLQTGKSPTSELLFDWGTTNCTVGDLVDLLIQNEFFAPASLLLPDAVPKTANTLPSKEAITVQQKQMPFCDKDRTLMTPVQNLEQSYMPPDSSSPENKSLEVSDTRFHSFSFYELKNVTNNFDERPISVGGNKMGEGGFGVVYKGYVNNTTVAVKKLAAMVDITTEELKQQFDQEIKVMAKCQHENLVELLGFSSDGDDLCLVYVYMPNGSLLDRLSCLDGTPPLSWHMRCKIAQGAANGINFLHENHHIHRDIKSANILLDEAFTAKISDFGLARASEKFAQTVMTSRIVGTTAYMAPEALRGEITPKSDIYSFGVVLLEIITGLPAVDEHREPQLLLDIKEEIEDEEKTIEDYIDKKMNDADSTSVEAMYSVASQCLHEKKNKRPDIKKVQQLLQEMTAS

Met(Y1248C)(h) = Met(Y1248C)(h) (human, UniProt P08581-2 974-1408, limits assumed)
MST3(h) = MST3(h) (human, UniProt Q9Y6E0 1-443, limits assumed)
p70S6K(h) = p70S6K(h) (human, UniProt P23443 1-421, limits assumed)
PKBγ(h) = PKBγ(h) (human, UniProt Q9Y243 1-479, limits assumed)
Ret(V804L)(h) = target: T2, Ret(V804L)(h) (human, UniProt P07949 658-1114, limits assumed)
T2 sequence (looked up): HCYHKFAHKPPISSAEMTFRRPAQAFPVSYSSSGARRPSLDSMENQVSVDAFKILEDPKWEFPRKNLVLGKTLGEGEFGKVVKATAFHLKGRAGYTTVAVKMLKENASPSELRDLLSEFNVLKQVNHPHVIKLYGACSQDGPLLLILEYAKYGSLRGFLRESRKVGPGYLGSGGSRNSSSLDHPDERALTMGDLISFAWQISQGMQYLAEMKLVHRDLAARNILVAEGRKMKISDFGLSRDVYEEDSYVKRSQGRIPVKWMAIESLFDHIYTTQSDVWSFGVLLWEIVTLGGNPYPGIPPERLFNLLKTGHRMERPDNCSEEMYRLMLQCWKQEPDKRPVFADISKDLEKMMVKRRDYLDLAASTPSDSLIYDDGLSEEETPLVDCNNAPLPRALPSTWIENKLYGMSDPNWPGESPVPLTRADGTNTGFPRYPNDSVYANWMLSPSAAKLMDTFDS

Ron(h) = target: T3, Ron(h) (human, UniProt Q04912 983-1400, limits assumed)
T3 sequence (looked up): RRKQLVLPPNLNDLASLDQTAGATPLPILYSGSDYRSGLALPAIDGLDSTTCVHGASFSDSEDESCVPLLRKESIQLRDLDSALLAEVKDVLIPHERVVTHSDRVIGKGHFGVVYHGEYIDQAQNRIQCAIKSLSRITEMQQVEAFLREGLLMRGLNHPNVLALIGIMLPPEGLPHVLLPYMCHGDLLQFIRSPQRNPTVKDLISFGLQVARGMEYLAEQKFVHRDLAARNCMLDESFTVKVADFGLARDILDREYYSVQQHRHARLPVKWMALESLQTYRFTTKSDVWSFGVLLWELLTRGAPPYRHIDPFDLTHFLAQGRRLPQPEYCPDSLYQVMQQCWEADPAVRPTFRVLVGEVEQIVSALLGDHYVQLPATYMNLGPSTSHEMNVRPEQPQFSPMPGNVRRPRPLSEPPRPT

SIK(h) = SIK(h) (human, UniProt P57059 1-783, limits assumed)
Snk(h) = Snk(h) (human, UniProt Q9NYY3 1-685, limits assumed)
TAK1(h) = target: T4, TAK1(h) (human, UniProt O43318 1-303, limits assumed)
T4 sequence (looked up): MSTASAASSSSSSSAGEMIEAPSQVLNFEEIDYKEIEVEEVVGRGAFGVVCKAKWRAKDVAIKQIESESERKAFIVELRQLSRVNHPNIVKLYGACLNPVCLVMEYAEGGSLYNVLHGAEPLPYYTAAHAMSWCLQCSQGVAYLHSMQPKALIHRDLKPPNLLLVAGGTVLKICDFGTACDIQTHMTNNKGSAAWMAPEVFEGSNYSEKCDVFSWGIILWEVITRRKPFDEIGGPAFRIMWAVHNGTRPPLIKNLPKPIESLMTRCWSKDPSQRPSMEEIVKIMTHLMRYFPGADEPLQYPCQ

Yes(h) = Yes(h) (human, UniProt P07947 1-543, limits assumed)
ZIPK(h) = ZIPK(h) (human, UniProt O43293 1-454, limits assumed)
cKit(D816V)(h) = cKit(D816V)(h) (human, UniProt P10721 544-976, limits assumed)
FGFR4(h) = FGFR4(h) (human, UniProt P22455 460-802, limits assumed)
Further: test concentration or dose not given here.

FGFR4(h), sequence (P22455 460-802 limits assumed): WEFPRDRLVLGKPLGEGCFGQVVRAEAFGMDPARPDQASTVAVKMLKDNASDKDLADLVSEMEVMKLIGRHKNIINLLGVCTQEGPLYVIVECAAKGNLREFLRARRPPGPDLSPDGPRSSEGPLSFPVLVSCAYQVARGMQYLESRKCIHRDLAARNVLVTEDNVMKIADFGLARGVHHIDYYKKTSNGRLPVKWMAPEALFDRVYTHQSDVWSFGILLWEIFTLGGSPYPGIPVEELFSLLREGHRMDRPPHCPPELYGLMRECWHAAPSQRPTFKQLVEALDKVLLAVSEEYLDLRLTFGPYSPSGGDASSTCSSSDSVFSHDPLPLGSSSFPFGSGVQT
HIPK1(h), sequence (Q86Z02 158-555 limits assumed): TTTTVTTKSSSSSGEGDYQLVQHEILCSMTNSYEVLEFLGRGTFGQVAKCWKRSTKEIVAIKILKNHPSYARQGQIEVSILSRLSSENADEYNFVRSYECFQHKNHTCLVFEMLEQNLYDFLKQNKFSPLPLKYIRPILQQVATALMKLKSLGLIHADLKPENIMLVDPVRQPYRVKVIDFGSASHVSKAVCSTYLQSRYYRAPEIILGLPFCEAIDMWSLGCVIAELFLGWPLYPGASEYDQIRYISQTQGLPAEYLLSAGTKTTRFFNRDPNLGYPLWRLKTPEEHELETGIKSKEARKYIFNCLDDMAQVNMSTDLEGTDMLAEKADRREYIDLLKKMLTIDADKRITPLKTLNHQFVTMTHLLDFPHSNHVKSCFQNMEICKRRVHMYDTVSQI
HIPK2(h), sequence (Q9H2X6 165-564 limits assumed): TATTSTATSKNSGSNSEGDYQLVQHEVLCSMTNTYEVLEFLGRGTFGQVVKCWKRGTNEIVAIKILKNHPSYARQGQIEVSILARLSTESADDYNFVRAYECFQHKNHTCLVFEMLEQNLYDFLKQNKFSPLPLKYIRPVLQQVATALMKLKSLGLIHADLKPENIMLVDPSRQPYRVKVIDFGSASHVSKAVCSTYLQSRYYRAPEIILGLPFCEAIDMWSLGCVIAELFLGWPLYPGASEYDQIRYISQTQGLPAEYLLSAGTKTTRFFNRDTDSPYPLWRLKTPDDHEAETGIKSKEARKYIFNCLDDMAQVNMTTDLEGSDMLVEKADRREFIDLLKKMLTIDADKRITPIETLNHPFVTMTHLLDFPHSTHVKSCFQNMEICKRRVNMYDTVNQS
SIK(h), sequence (P57059 whole entry): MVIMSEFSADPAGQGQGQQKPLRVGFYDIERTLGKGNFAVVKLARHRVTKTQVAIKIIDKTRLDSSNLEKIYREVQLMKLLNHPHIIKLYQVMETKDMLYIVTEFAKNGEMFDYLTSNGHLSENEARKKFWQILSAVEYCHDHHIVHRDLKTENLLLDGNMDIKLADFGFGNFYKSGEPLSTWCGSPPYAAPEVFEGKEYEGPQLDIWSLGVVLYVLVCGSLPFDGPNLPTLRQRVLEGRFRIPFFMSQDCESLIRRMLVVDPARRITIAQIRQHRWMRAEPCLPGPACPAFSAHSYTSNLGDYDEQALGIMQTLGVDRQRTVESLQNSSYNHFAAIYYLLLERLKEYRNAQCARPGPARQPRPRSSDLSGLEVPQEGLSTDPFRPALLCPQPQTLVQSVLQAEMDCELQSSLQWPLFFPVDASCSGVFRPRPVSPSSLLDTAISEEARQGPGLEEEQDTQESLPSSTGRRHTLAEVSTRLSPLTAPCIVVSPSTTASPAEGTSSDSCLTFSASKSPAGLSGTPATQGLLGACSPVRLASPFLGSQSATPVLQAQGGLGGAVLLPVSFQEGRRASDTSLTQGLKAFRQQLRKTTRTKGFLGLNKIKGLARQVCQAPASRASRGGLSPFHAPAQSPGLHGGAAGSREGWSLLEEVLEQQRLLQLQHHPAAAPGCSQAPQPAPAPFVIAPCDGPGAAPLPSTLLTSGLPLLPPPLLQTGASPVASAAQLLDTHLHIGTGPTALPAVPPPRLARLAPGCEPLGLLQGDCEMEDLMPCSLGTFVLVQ
IRR(h), sequence (P14616 960-1297 limits assumed): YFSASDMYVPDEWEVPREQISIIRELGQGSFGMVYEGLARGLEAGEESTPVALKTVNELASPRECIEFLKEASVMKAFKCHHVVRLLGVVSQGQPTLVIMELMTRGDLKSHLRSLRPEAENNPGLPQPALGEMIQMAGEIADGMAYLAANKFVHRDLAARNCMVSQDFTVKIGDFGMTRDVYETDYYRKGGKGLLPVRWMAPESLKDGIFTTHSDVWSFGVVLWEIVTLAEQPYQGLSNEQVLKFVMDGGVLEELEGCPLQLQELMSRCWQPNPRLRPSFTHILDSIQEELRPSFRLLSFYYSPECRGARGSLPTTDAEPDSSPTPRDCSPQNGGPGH
Yes(h), sequence (P07947 whole entry): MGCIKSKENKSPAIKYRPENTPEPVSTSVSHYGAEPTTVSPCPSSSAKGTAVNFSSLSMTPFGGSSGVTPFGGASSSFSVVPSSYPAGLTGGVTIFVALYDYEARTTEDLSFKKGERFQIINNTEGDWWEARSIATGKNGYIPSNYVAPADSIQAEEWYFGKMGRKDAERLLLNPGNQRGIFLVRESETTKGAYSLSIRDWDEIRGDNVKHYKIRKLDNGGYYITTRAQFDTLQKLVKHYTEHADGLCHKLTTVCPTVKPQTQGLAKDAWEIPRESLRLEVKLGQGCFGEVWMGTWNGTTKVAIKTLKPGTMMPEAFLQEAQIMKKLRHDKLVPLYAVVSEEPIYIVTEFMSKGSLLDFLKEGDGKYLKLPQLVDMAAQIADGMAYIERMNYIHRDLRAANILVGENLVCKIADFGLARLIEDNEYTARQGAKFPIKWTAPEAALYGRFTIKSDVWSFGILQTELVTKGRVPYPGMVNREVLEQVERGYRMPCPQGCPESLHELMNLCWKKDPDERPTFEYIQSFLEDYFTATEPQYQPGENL
PKBγ(h), sequence (Q9Y243 whole entry): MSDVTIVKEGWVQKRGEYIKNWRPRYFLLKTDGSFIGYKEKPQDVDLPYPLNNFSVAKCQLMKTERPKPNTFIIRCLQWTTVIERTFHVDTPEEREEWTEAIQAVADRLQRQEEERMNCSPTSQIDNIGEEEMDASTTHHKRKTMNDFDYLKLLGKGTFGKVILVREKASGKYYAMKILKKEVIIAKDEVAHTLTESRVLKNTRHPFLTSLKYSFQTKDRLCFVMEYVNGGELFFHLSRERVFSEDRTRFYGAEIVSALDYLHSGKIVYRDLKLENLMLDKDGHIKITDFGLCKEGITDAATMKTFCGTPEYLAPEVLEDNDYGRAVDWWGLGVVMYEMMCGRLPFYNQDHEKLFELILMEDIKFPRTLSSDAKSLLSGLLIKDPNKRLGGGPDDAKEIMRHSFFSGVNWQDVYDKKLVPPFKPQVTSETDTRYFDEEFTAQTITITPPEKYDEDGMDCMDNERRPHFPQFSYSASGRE
ZIPK(h), sequence (O43293 whole entry): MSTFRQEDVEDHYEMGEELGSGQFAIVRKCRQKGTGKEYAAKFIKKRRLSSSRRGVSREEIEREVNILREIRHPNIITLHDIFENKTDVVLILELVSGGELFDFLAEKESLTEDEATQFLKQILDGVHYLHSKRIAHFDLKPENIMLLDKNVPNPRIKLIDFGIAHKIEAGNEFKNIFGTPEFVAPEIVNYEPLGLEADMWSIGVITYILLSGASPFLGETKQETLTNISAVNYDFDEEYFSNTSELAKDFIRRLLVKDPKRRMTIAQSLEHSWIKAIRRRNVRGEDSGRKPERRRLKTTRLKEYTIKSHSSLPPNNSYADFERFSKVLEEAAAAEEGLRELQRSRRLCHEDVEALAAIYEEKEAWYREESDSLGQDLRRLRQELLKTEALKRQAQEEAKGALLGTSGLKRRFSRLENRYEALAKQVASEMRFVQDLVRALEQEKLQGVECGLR
cKit(D816V)(h), sequence (P10721 544-976 D816V limits assumed): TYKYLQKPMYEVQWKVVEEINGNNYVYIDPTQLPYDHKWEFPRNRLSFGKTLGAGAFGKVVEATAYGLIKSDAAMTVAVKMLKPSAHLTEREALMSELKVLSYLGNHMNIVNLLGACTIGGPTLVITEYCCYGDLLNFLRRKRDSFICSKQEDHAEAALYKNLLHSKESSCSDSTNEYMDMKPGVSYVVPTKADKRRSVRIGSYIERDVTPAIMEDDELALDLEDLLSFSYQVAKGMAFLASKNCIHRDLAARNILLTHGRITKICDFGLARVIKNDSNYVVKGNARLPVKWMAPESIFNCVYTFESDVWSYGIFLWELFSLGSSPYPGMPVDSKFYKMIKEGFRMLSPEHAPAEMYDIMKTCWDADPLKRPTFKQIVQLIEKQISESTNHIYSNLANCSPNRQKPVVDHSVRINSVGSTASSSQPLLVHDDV
Snk(h), sequence (Q9NYY3 whole entry): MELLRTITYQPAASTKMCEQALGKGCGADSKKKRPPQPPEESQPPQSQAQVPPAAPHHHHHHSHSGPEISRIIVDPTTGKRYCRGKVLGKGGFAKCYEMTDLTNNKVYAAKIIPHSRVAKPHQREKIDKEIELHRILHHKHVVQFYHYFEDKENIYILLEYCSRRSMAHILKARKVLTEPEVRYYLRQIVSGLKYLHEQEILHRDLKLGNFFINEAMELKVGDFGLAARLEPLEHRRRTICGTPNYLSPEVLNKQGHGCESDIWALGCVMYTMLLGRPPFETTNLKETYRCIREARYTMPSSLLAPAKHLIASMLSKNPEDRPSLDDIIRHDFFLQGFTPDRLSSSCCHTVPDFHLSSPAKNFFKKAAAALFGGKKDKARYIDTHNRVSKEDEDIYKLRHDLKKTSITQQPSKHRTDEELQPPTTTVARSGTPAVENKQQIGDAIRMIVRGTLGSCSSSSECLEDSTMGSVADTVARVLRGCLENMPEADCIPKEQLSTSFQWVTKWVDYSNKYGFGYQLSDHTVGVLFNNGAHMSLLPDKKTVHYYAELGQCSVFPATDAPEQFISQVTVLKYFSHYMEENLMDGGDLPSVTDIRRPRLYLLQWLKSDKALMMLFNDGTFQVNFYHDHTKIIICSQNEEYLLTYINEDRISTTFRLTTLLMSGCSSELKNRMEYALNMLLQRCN

| % activity (Hck(h)) [%] | % activity (HIPK1(h)) [%] | % activity (HIPK2(h)) [%] | % activity (IRR(h)) [%] | % activity (IRAK4(h)) [%] | % activity (Met(Y1248C)(h)) [%] | % activity (MST3(h)) [%] | % activity (p70S6K(h)) [%] | % activity (PKBγ(h)) [%] | % activity (Ret(V804L)(h)) [%] | % activity (Ron(h)) [%] | % activity (SIK(h)) [%] | % activity (Snk(h)) [%] | % activity (TAK1(h)) [%] | % activity (Yes(h)) [%] | % activity (ZIPK(h)) [%] | % activity (cKit(D816V)(h)) [%] | % activity (FGFR4(h)) [%] | Binder |
| --- | --- | --- | --- | --- | --- | --- | --- | --- | --- | --- | --- | --- | --- | --- | --- | --- | --- | --- |
| 72 | 74 | 73 | 8 | 59 | 84 | 45 | 35 | 20 | 79 | 93 | 66 | 114 | 122 | 67 | 28 | 60 | 28 | FAKLAARLYRKALARQLGVAA [MMI-0300] |
| 72 | 91 | 90 | 8 | 59 | 36 | 36 | 33 | 41 | 73 | 79 | 68 | 131 | 177 | 14 | 13 | 35 | 19 | KAFAKLAARLYRKALARQLGVAA [MMI-0400] |
